Results published in patent US20230295310A1 (ABCELLERA BIOLOGICS, published 2023).
Changes are numbered by the printed parent chain. Values belong to the binder of their own block, whether it stands above or below them.

Key:
[1] = target: T1, human CD3 expressed on cells (human, UniProt P07766 23-207; P04234 22-171; P09693 23-182); assay: flow cytometry, 25 nM
T1 construct: whole, on cells; CD3 complex on Jurkat cells and on human primary T cells
Summary of the method: (§1)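 Cells expressing CD3 were exposed to each antibody diluted to 25 nM for 30 minutes at 4° C, then analysed by flow cytometry. The median fluorescence signal was expressed relative to an isotype control, and a value of at least 10 indicated binding.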

[2] = target: T2, cynomolgus monkey CD3 expressed on primary T cells (cynomolgus monkey, UniProt Q95LI5 22-198; Q95LI8 22-171; Q95LI7 23-181); assay: flow cytometry, 25 nM, cyno primary T cells
T2 construct: whole, on cells; CD3 complex on purified cynomolgus monkey T cells; also called cyno CD3
T2 sequence (Q95LI5 22-198, chain 1 of 3): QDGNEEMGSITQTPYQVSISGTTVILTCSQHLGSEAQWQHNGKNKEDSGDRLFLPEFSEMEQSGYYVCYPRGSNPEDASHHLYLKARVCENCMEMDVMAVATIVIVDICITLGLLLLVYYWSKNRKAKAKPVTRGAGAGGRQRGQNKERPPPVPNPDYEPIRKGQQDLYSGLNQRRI
T2 sequence (Q95LI8 22-171, chain 2 of 3): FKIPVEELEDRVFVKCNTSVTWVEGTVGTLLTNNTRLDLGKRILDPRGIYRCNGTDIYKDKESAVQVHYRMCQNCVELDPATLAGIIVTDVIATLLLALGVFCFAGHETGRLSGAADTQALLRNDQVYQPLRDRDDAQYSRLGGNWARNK
T2 sequence (Q95LI7 23-181, chain 3 of 3): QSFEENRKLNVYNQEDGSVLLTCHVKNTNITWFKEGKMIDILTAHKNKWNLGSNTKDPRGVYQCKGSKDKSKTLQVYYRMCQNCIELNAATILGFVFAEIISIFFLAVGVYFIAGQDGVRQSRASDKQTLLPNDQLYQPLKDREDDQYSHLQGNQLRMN
Summary of the method: as §1

[3] = target: T1, human CD3 expressed on cells; assay: flow cytometry, human primary T cells (Jurkat cells in c2 gave 15.495, CD3 KO Jurkat cells in c3 gave 38.63)
Method: Purified antibodies were confirmed to bind CD3 expressed on cells using the CytoFLEX S or LX flow cytometers (Beckman Coulter). Antibodies were diluted to 25 nM in FACS buffer (PBS+2% FBS) and were incubated with CD3-expressing cells for 30 minutes at 4° C. […] The median fluorescence intensity of the binding signal for each antibody was normalized to the isotype control to obtain a fold over isotype value. An antibody with a fold over isotype (FOI) of ≥10 was considered to be positive for binding.

[4] = target: T3, human CD3 expressed on cells (Jurkat cells; human primary T cells) (human, UniProt P07766 23-207; P04234 22-171; P09693 23-182); assay: flow cytometry, 25 nM, Jurkat cells
T3 construct: whole, on cells
T3 sequence (P07766 23-207, chain 1 of 3): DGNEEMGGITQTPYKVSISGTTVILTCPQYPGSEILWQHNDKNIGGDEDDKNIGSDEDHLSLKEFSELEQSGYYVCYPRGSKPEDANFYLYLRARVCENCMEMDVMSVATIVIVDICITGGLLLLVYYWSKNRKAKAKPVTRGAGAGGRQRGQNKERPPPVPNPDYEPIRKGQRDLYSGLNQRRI
T3 sequence (P04234 22-171, chain 2 of 3): as the sequence (Q95LI8 22-171, chain 2 of 3) above, with V5I, K15N, V20I, T32S, N33D, N34I, A64T, N74S, L83V, R141H counted along it
T3 sequence (P09693 23-182, chain 3 of 3): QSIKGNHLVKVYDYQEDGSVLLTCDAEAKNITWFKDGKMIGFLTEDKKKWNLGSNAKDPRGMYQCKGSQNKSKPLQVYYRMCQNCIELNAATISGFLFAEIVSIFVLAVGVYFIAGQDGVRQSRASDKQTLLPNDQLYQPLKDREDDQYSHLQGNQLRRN
Summary of the method: as §1

[5] = target: T4, cynomolgus monkey CD3 expressed on cyno primary T cells (cynomolgus monkey, UniProt Q95LI5 22-198; Q95LI8 22-171; Q95LI7 23-181); assay: flow cytometry, 25 nM, cyno primary T cells
T4 construct: whole, on cells; CD3 complex on purified cynomolgus monkey CD3 pan T cells; also called cyno CD3
T4 sequence (Q95LI5 22-198, chain 1 of 3): as the sequence (Q95LI5 22-198, chain 1 of 3) above
T4 sequence (Q95LI8 22-171, chain 2 of 3): as the sequence (Q95LI8 22-171, chain 2 of 3) above
T4 sequence (Q95LI7 23-181, chain 3 of 3): as the sequence (Q95LI7 23-181, chain 3 of 3) above
Summary of the method: as §1

[6] = target: T3, human CD3 expressed on cells (Jurkat …); assay: flow cytometry, 25 nM, human primary T cells
Summary of the method: as §1

T1 sequence (P07766 23-207, chain 1 of 3): as the sequence (P07766 23-207, chain 1 of 3) above
T1 sequence (P04234 22-171, chain 2 of 3): as the sequence (Q95LI8 22-171, chain 2 of 3) above, with V5I, K15N, V20I, T32S, N33D, N34I, A64T, N74S, L83V, R141H counted along it
T1 sequence (P09693 23-182, chain 3 of 3): as the sequence (P09693 23-182, chain 3 of 3) above

B1: mAb 143 (antibody, V domains shown)
VH: QVQLMQSGSELEKPGASVKVSCKASGYTFTSFAINWVRQAPGQGLEWMGWINTITGNPSYAQGFTGRFVFSLDTSVTTAFLQINSLKTEDTAVYYCARYVTSSGKFDYWGQGTLVTVSS
VL: DIQMTQSPSSVSASVGDRVTITCRASRGISRWLDWYQQKPGKAPKLLIYAASNLQGGVPSRFSGSGSGTDFTLTIRSLQPEDFAIYYCQQAKTFPFTFGPGTKVDIK
Jurkat Cell Binding (FOI) [1]: 15.5 FOI
binding result [2]: no binding (tested: FOI >=10 = positive)
binding result [3]: no binding (tested: FOI >=10 = positive; 25 nM)

B2: mAb 176 (antibody, V domains shown)
VH: EVELVESGGGLVQPGRSLRLSCAASGFKFDDYTMHWVRLPPGKGLEWVSGISWNSGTIDYGDSVKGRFTISRDNAKNSLYLQMNSLRVEDTALYYCAKDTSGYGHYFYYYMDVWGKGTTVTVSS
VL: DIQMTQSPSSLSASIGDRVSITCRTSQIINNYLNWYQQKPGKAPKVLIYSASSLQSGVPSRFSGSGSGTDFTLTINSLQPEDFATYYCQQSYNFPITFGQGTRLELK
notes: VH/VL only
Binding (FOI) [4]: 114 FOI
Binding (FOI) [5]: 34 FOI
Binding (FOI) [6]: 147 FOI

B5: mAb 179 (antibody, V domains shown)
VH: EVQLVESGGGLVQPGRSLRLSCAASGFTFDDYTMHWVRQTPGKGLEWVSDISWNSGSIGYADSVKGRFTISRDNAKNTLYLQMNSLRAEDTALYYCVKDSSGYGHYLYYYMDVWGKGTTVTVSS
VL: DIQMTQSPSSLSASVGDRVTITCRASQSIRNYLNWYQQSPGRAPKLLIFSASSLQSGVPSRFSGSGSGTDFTLTISSLQPEDFVTYYCQQRYSTPITFGQGTRLEIK
notes: VH/VL only
Binding (FOI) [4]: 129 FOI
Binding (FOI) [5]: 54.2 FOI
Binding (FOI) [6]: 177 FOI

Other lines, results leading:

Binding (FOI) [4]: 121 FOI
Binding (FOI) [5]: 45.1 FOI
Binding (FOI) [6]: 146 FOI
B3: mAb 177 (antibody, V domains shown)
VH: EVQLVESGGGLVQPGMSLRLSCAASGFTFDDYTMHWVRQSPGKGLEWVAGISWNSGTIGYGDSMKGRFTISRDNAKNSLDLQMNSLRVEDTALYYCAKDTSGYGHYYYYFMDVWGKGTTVTVSS
VL: B2 VL with V46L, I75L, N76S, Y87F
notes: VH/VL only; the printed VL holds a letter U

Binding (FOI) [4]: 128 FOI
Binding (FOI) [5]: 158 FOI
Binding (FOI) [6]: 172 FOI
B4: mAb 178 (antibody, V domains shown)
VH: B5 VH with T40A, S57T, T78S, L107Y, Y108K
VL: DIQMTQSPSSLSASVGDRVTITCRASQSISNYLNWYQQKAGKVPKVLIYGSSSLQSGVPSRFSGSGSGTDFTLTISSLQPEDFASYYCQQTYSSPLTFGGGTKVDFK
notes: VH/VL only
